From the Human Domainome abundance scans (Beltran et al. 2025) come the findings set out here.

± gives the uncertainty stated by the source.

The labels stand for the following.
B1: Apoptosis-associated speck-like protein containing a CARD, residues 114 to 194; numbered along this chain, Q9ULZ3 (parent)
chain: FIDQHRAALIARVTNVEWLLDALYGKVLTDEQYQAVRAEPTNPSKMRKLFSFTPAWNWTCKDLLLQALRESQSYLVEDLER

Variants of B1 are the subject of this data set. Nature of the data set: abundance fitness (aPCA) (normalised: wild type 0, dead -1); higher = more abundant; growth selection in yeast, the domain comes from the species named. The note with it: Homo sapiens.
Turning to FIDQHRAALIARVTCVEWLLDALYGKVLTDEQYQAVRAEPTNPSKMRKLFSFTPAWNWTCKDLLLQALRESQSYLVEDLER [N15C], the abundance fitness was -0.718 ± 0.14.

For FIDQHRAALIARVTAVEWLLDALYGKVLTDEQYQAVRAEPTNPSKMRKLFSFTPAWNWTCKDLLLQALRESQSYLVEDLER [N15A], the abundance fitness is -0.718 ± 0.077.

Turning to FIDQHRAALIARVTVVEWLLDALYGKVLTDEQYQAVRAEPTNPSKMRKLFSFTPAWNWTCKDLLLQALRESQSYLVEDLER [N15V], the abundance fitness was -0.947 ± 0.14.

Regarding FIDQHRAALIARVTEVEWLLDALYGKVLTDEQYQAVRAEPTNPSKMRKLFSFTPAWNWTCKDLLLQALRESQSYLVEDLER [N15E], the abundance fitness is -0.188 ± 0.064.

For the variant FIDQHRAALIARVTYVEWLLDALYGKVLTDEQYQAVRAEPTNPSKMRKLFSFTPAWNWTCKDLLLQALRESQSYLVEDLER [N15Y], the abundance fitness was -0.555 ± 0.2.

FIDQHRAALIARVTWVEWLLDALYGKVLTDEQYQAVRAEPTNPSKMRKLFSFTPAWNWTCKDLLLQALRESQSYLVEDLER [N15W]: the abundance fitness is -0.605 ± 0.17.

For the variant FIDQHRAALIARVTPVEWLLDALYGKVLTDEQYQAVRAEPTNPSKMRKLFSFTPAWNWTCKDLLLQALRESQSYLVEDLER [N15P], the abundance fitness was -0.806 ± 0.14.

On to FIDQHRAALIARVTGVEWLLDALYGKVLTDEQYQAVRAEPTNPSKMRKLFSFTPAWNWTCKDLLLQALRESQSYLVEDLER [N15G], for which the abundance fitness is -0.604 ± 0.058.

Regarding FIDQHRAALIARVTHVEWLLDALYGKVLTDEQYQAVRAEPTNPSKMRKLFSFTPAWNWTCKDLLLQALRESQSYLVEDLER [N15H], the abundance fitness is -0.291 ± 0.11.

Take FIDQHRAALIARVTFVEWLLDALYGKVLTDEQYQAVRAEPTNPSKMRKLFSFTPAWNWTCKDLLLQALRESQSYLVEDLER [N15F]: the abundance fitness was -0.997 ± 0.3.

On to FIDQHRAALIARVTRVEWLLDALYGKVLTDEQYQAVRAEPTNPSKMRKLFSFTPAWNWTCKDLLLQALRESQSYLVEDLER [N15R], for which the abundance fitness was -0.359 ± 0.06.

As for FIDQHRAALIARVTKVEWLLDALYGKVLTDEQYQAVRAEPTNPSKMRKLFSFTPAWNWTCKDLLLQALRESQSYLVEDLER [N15K], the abundance fitness was -0.041 ± 0.09.

Regarding FIDQHRAALIARVTMVEWLLDALYGKVLTDEQYQAVRAEPTNPSKMRKLFSFTPAWNWTCKDLLLQALRESQSYLVEDLER [N15M], the abundance fitness is -0.847 ± 0.17.

Turning to FIDQHRAALIARVTDVEWLLDALYGKVLTDEQYQAVRAEPTNPSKMRKLFSFTPAWNWTCKDLLLQALRESQSYLVEDLER [N15D], the abundance fitness was -0.142 ± 0.068.

For the variant FIDQHRAALIARVTLVEWLLDALYGKVLTDEQYQAVRAEPTNPSKMRKLFSFTPAWNWTCKDLLLQALRESQSYLVEDLER [N15L], the abundance fitness is -0.796 ± 0.15.

On to FIDQHRAALIARVTTVEWLLDALYGKVLTDEQYQAVRAEPTNPSKMRKLFSFTPAWNWTCKDLLLQALRESQSYLVEDLER [N15T], for which the abundance fitness was -0.518 ± 0.099.

Turning to FIDQHRAALIARVTIVEWLLDALYGKVLTDEQYQAVRAEPTNPSKMRKLFSFTPAWNWTCKDLLLQALRESQSYLVEDLER [N15I], the abundance fitness was -0.857 ± 0.25.

For FIDQHRAALIARVTNHEWLLDALYGKVLTDEQYQAVRAEPTNPSKMRKLFSFTPAWNWTCKDLLLQALRESQSYLVEDLER [V16H], the abundance fitness was -0.821 ± 0.22.

As to FIDQHRAALIARVTNGEWLLDALYGKVLTDEQYQAVRAEPTNPSKMRKLFSFTPAWNWTCKDLLLQALRESQSYLVEDLER [V16G], the abundance fitness was -0.88 ± 0.087.

For the variant FIDQHRAALIARVTNLEWLLDALYGKVLTDEQYQAVRAEPTNPSKMRKLFSFTPAWNWTCKDLLLQALRESQSYLVEDLER [V16L], the abundance fitness was -0.484 ± 0.078.

On to FIDQHRAALIARVTNTEWLLDALYGKVLTDEQYQAVRAEPTNPSKMRKLFSFTPAWNWTCKDLLLQALRESQSYLVEDLER [V16T], for which the abundance fitness was -0.572 ± 0.095.

As for FIDQHRAALIARVTNQEWLLDALYGKVLTDEQYQAVRAEPTNPSKMRKLFSFTPAWNWTCKDLLLQALRESQSYLVEDLER [V16Q], the abundance fitness is -0.865 ± 0.15.

In the case of FIDQHRAALIARVTNDEWLLDALYGKVLTDEQYQAVRAEPTNPSKMRKLFSFTPAWNWTCKDLLLQALRESQSYLVEDLER [V16D], the abundance fitness is -0.773 ± 0.11.

For the variant FIDQHRAALIARVTNPEWLLDALYGKVLTDEQYQAVRAEPTNPSKMRKLFSFTPAWNWTCKDLLLQALRESQSYLVEDLER [V16P], the abundance fitness is -0.35 ± 0.068.

FIDQHRAALIARVTNWEWLLDALYGKVLTDEQYQAVRAEPTNPSKMRKLFSFTPAWNWTCKDLLLQALRESQSYLVEDLER [V16W]: the abundance fitness is -0.533 ± 0.084.

Regarding FIDQHRAALIARVTNIEWLLDALYGKVLTDEQYQAVRAEPTNPSKMRKLFSFTPAWNWTCKDLLLQALRESQSYLVEDLER [V16I], the abundance fitness is -0.464 ± 0.12.

Regarding FIDQHRAALIARVTNEEWLLDALYGKVLTDEQYQAVRAEPTNPSKMRKLFSFTPAWNWTCKDLLLQALRESQSYLVEDLER [V16E], the abundance fitness was -0.928 ± 0.17.

Regarding FIDQHRAALIARVTNREWLLDALYGKVLTDEQYQAVRAEPTNPSKMRKLFSFTPAWNWTCKDLLLQALRESQSYLVEDLER [V16R], the abundance fitness was -0.573 ± 0.057.

FIDQHRAALIARVTNAEWLLDALYGKVLTDEQYQAVRAEPTNPSKMRKLFSFTPAWNWTCKDLLLQALRESQSYLVEDLER [V16A]: the abundance fitness is -0.794 ± 0.1.

As for FIDQHRAALIARVTNSEWLLDALYGKVLTDEQYQAVRAEPTNPSKMRKLFSFTPAWNWTCKDLLLQALRESQSYLVEDLER [V16S], the abundance fitness was -0.846 ± 0.1.

For the variant FIDQHRAALIARVTNCEWLLDALYGKVLTDEQYQAVRAEPTNPSKMRKLFSFTPAWNWTCKDLLLQALRESQSYLVEDLER [V16C], the abundance fitness was -0.342 ± 0.16.

As for FIDQHRAALIARVTNYEWLLDALYGKVLTDEQYQAVRAEPTNPSKMRKLFSFTPAWNWTCKDLLLQALRESQSYLVEDLER [V16Y], the abundance fitness was -1.02 ± 0.42.

In the case of FIDQHRAALIARVTNFEWLLDALYGKVLTDEQYQAVRAEPTNPSKMRKLFSFTPAWNWTCKDLLLQALRESQSYLVEDLER [V16F], the abundance fitness is -0.941 ± 0.26.

With FIDQHRAALIARVTNVAWLLDALYGKVLTDEQYQAVRAEPTNPSKMRKLFSFTPAWNWTCKDLLLQALRESQSYLVEDLER [E17A], the abundance fitness was -0.619 ± 0.067.
